{"source": "paper PMC2275104", "about": "(Nucleic Acids Research, 2008)", "key": {"[1]": {"target": "M. thermautotrophicus MCM (MTH1770) (Methanothermobacter thermautotrophicus, UniProt O27798)", "sequence (O27798 1-666)": "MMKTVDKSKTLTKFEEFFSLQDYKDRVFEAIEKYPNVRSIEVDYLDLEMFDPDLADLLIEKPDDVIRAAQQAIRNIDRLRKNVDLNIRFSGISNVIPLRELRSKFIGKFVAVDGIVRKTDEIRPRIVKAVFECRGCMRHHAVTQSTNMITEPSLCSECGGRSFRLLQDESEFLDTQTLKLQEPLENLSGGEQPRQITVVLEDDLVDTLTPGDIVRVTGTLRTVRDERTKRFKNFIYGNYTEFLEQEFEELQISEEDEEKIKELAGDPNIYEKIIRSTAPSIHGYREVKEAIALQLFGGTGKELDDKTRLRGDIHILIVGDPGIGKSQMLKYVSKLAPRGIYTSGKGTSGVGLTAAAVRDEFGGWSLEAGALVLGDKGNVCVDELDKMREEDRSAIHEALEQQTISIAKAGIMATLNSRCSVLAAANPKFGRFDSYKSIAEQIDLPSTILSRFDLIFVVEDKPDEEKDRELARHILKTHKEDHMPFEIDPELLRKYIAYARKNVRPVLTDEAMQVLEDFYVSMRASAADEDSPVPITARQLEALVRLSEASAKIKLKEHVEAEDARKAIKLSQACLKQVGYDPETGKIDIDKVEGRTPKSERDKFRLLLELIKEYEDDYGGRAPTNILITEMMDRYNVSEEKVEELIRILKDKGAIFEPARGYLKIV", "details": "labelled compound; Hepes-NaOH pH 7.5, 5 mM MgCl2, 60°C"}, "MCM P193G": {"target": "T1, MCM P193G (Methanothermobacter thermautotrophicus, UniProt O27798 1-666, P193G)", "T1 sequence": "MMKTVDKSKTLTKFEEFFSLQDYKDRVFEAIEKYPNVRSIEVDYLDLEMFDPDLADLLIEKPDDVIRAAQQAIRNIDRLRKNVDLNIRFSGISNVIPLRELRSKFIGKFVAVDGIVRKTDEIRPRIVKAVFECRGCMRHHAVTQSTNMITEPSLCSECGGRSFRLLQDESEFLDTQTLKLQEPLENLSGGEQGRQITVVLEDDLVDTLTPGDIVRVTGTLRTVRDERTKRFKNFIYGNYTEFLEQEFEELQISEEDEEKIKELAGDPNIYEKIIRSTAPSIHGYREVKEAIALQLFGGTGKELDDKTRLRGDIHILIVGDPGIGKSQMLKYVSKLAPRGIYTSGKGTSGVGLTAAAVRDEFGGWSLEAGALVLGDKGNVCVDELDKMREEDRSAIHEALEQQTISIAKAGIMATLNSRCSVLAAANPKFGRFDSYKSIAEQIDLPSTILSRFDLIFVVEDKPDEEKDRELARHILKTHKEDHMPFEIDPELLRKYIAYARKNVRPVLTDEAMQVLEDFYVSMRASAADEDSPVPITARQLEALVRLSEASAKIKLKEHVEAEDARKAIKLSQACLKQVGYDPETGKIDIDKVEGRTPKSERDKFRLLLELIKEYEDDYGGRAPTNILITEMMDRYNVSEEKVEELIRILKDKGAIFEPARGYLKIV", "assay": "fluorescence anisotropy"}, "MCM E182R": {"target": "T2, MCM E182R (Methanothermobacter thermautotrophicus, UniProt O27798 1-666, E182R)", "T2 sequence": "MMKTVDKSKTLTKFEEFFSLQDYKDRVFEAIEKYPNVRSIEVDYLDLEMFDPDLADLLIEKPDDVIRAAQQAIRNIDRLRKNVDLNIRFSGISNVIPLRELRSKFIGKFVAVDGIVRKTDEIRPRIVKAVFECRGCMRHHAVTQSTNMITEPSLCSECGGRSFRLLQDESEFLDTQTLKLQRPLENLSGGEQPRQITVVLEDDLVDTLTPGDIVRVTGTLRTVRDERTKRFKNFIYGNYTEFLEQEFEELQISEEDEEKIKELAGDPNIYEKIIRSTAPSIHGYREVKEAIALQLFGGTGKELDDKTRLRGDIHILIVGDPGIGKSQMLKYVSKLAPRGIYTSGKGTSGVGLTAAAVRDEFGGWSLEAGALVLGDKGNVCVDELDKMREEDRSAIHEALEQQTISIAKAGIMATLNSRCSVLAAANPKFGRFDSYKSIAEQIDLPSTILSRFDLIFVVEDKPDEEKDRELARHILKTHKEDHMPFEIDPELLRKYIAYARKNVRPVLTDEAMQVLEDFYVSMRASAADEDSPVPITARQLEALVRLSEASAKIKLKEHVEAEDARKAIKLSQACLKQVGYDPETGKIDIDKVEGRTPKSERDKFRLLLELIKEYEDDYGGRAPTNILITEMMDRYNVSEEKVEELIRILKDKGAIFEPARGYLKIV", "assay": "fluorescence anisotropy"}, "MCM beta-finger mutant": {"target": "T3, MCM beta-finger mutant (Methanothermobacter thermautotrophicus, UniProt O27798 1-666, R227A;K229A)", "T3 sequence": "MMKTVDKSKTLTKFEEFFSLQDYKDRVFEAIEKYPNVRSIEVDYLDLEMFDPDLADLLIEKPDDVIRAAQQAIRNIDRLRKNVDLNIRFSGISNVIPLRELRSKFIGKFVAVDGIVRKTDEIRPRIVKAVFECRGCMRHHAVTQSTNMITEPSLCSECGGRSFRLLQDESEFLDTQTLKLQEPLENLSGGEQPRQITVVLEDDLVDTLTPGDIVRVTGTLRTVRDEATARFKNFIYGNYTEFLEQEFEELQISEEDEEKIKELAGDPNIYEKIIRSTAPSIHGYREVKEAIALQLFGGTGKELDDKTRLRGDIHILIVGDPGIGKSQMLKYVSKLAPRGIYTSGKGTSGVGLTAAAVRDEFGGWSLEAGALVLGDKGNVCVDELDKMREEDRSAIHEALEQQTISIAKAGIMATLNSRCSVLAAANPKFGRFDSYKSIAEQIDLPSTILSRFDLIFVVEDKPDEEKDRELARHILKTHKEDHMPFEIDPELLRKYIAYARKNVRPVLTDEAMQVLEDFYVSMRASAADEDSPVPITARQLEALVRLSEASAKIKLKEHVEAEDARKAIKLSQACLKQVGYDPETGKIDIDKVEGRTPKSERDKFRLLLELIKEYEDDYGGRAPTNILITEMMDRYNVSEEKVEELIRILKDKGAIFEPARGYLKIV", "assay": "fluorescence anisotropy"}}, "data": [{"molecule": "Nc1ncnc2c1ncn2[C@@H]1O[C@H](COP(=O)(O)OP(=O)(O)OP(=O)(O)O)[C@@H](O)[C@H]1O", "note": "[ATP]", "values": [{"measurement": "% ATP cross-linked relative to wild type", "setting": "[1]", "result": "UV crosslinking of ATP to the various MCM proteins was performed"}]}, {"molecule": "CGCAGATAACAGTTGTCCTGGAGAACGACCTGGTTGACACCCTCACACCC (ssDNA)", "note": "[50-mer Cy3-ssDNA]", "values": [{"measurement": "binding result", "setting": "MCM P193G", "result": "binds"}, {"measurement": "binding result", "setting": "MCM E182R", "result": "binds"}, {"measurement": "binding result", "setting": "MCM beta-finger mutant", "result": "no binding"}]}]}
